Each block holds one molecule with its values, some of them ahead of it.
Experiments:
[1] = molecular target: flag-tagged KV7.2 channel subunit (UniProt O43526)
[2] = molecular target: flag-tagged KV7.2 channel subunit (UniProt O43526); remark: listed apart in the source

Chain of UniProt O43526 (O43526 whole entry): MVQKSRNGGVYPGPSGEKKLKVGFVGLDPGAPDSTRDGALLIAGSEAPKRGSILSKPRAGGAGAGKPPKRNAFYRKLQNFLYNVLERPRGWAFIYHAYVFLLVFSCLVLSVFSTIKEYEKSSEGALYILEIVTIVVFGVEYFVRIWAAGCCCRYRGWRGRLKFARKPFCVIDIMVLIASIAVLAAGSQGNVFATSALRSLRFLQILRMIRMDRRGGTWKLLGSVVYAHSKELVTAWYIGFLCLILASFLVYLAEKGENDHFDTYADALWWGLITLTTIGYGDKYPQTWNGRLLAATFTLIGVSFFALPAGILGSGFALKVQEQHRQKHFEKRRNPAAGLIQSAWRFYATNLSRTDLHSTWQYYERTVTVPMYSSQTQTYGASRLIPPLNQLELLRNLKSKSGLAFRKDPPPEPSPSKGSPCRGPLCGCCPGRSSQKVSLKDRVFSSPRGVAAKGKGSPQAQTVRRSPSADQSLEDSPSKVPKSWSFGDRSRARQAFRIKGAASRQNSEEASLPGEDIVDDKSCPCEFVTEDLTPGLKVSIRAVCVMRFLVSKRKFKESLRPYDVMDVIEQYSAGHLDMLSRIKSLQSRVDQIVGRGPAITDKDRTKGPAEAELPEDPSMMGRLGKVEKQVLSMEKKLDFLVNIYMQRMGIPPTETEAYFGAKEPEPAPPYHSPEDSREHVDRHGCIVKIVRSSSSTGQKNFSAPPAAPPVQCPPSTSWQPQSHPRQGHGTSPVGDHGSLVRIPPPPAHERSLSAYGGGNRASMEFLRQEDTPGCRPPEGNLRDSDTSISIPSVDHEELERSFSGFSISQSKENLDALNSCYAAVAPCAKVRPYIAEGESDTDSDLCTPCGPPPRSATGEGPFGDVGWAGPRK

current amplitude (patch clamp) in CHO cells co-transfected with KV8.1(AAA) and wild-type KV7.2 at a 1:1 ratio, relative to co-transfection of wild-type channels [1]: 49.4%
steady-state current density at +20 mV (patch clamp) in CHO cells co-transfected with KV8.1(AAA) and wild-type KV7.2 (4:1), relative to both wild-type constructs [2]: 50%
Molecule: pore-mutated KV8.1(AAA) (from UniProt Q6PIU1 1-500) (natural protein)

current amplitude (patch clamp) in CHO cells co-transfected with KV8.1 G399R and wild-type KV7.2 (4:1), relative to both wild-type constructs [1]: 54%
B1: KV8.1 G399R (natural protein)
chain: MPSSGRALLDSPLDSGSLTSLDSSVFCSEGEGEPLALGDCFTVNVGGSRFVLSQQALSCFPHTRLGKLAVVVASYRRPGALAAVPSPLELCDDANPVDNEYFFDRSSQAFRYVLHYYRTGRLHVMEQLCALSFLQEIQYWGIDELSIDSCCRDRYFRRKELSETLDFKKDTEDQESQHESEQDFSQGPCPTVRQKLWNILEKPGSSTAARIFGVISIIFVVVSIINMALMSAELSWLDLQLLEILEYVCISWFTGEFVLRFLCVRDRCRFLRKVPNIIDLLAILPFYITLLVESLSGSQTTQELENVGRIVQVLRLLRALRMLKLGRHSTGLRSLGMTITQCYEEVGLLLLFLSVGISIFSTVEYFAEQSIPDTTFTSVPCAWWWATTSMTTVGYRDIRPDTTTGKIVAFMCILSGILVLALPIAIINDRFSACYFTLKLKEAAVRQREALKKLTKNIATDSYISVNLRDVYARSIMEMLRLKGRERASTRSSGGDDFWF

current amplitude (patch clamp) in CHO cells co-transfected with KV8.1 W388G and wild-type KV7.2 (4:1), relative to both wild-type constructs [1]: 44.1%
B2: KV8.1 W388G (natural protein)
chain: MPSSGRALLDSPLDSGSLTSLDSSVFCSEGEGEPLALGDCFTVNVGGSRFVLSQQALSCFPHTRLGKLAVVVASYRRPGALAAVPSPLELCDDANPVDNEYFFDRSSQAFRYVLHYYRTGRLHVMEQLCALSFLQEIQYWGIDELSIDSCCRDRYFRRKELSETLDFKKDTEDQESQHESEQDFSQGPCPTVRQKLWNILEKPGSSTAARIFGVISIIFVVVSIINMALMSAELSWLDLQLLEILEYVCISWFTGEFVLRFLCVRDRCRFLRKVPNIIDLLAILPFYITLLVESLSGSQTTQELENVGRIVQVLRLLRALRMLKLGRHSTGLRSLGMTITQCYEEVGLLLLFLSVGISIFSTVEYFAEQSIPDTTFTSVPCAWWGATTSMTTVGYGDIRPDTTTGKIVAFMCILSGILVLALPIAIINDRFSACYFTLKLKEAAVRQREALKKLTKNIATDSYISVNLRDVYARSIMEMLRLKGRERASTRSSGGDDFWF
